Measured values from US20170246252A1.

Target: endogenous mIL-10 receptors (R1 and R2) on MC/9 mouse mast cells (mouse) (UniProt Q61727)
Assay: cell-based or functional assay

UniProt Q61727, sequence (Q61727 17-575, chain 1 of 2): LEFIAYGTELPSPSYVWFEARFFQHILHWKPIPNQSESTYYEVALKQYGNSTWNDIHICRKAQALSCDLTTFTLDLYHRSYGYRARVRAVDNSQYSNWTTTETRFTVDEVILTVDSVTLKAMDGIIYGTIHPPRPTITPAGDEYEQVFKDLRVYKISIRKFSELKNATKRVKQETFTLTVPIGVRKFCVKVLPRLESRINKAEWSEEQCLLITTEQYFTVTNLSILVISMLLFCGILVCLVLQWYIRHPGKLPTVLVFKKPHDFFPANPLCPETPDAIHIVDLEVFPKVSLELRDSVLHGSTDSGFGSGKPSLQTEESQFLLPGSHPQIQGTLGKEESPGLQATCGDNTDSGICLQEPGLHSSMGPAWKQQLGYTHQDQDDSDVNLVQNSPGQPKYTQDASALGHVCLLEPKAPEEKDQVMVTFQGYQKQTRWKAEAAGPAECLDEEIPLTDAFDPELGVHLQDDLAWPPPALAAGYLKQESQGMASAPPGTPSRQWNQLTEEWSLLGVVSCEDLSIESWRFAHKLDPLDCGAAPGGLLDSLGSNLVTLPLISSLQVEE
UniProt Q61727, sequence (Q61190 20-349, chain 2 of 2, further chain): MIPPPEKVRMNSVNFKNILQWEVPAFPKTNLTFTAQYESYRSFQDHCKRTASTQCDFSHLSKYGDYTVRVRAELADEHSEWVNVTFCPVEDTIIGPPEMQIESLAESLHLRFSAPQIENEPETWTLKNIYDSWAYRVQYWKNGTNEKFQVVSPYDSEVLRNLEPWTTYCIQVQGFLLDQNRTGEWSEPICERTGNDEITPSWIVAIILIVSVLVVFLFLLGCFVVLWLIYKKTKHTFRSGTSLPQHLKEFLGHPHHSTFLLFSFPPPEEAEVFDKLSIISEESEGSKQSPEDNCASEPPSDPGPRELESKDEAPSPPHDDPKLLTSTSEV

| Substance | EC50 (ng/mL) in MC/9 Assay (proliferation with mIL-4 co-stimulation, Alamar Blue) [ng/mL] | specific activity in the MC/9 bioassay relative to mIL-10 [fold lower] |
| --- | --- | --- |
| Murine IL-10 (from UniProt P18893 19-178) (ligand) | 0.571 |  |
| PEG-mIL-10 (from UniProt P18893 19-178) (ligand) | 4.04 | 7 |
